The target of assay [1] is T1, recombinant human cardiotrophin-like cytokine factor 1 (CLCF1) (human, UniProt Q9UBD9 28-225).
T1 chain: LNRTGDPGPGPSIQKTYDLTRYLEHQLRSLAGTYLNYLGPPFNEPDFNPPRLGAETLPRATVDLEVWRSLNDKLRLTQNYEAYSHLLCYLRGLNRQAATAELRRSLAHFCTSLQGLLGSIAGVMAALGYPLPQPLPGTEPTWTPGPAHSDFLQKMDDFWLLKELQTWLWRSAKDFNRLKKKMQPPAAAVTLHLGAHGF
Description: ELISA.

The target in assay [2] is T1, recombinant human cardiotrophin-like ….
For assay [3] the target is unchanged.
The next assay addresses 5. The experiment in a line: yeast display binding; apparent Kd.
A further assay concerns the target 2. Description: yeast display binding; apparent Kd.
The target in the next assay is 1. The experiment in a line: yeast display binding; apparent Kd.
A further assay has as its target 3. The experiment in a line: yeast display binding; apparent Kd.

Where two headings read alike, the source gives them in different places.

B1: eCNTFR-HIS (soluble engineered CNTFR with His-tag) (receptor)
chain: QRHSPQEAPHVQYERLGSDVTLPCGTANWDAAVTWRVNGTDLAPDLLNGSQLVLHGLELGHSGLYACFHRDSWHLRHQVLLHVGLPPQEPVLSCRSNTYPKGFYCSWHLPTPTYIPNTFNVTVLHGSKIMVCEKDPALKNRCHIRYMHLFSPIKHNVSISVSNALGHNATAITFDEFTIVKPDPPENVVARPVPSNPRRLEVTWQTPSTWPDPEFFPLKFFLRYRPLILDQWQHVELSDGTAHTIAAAYAGKEYIIQVAAKDNEFGTWSDWSVAAHATPWTEEPRHLTTEAQAAETTTSTTSSLAPPPTTKICDPGELGS
On to B1, for which, in assay [1], the Kd was determined as 0.075 nM.

B2: eCNTFR-Fc (soluble engineered CNTFR fused to mouse IgG2a Fc) (Fc fusion)
chain: QRHSPQEAPHVQYERLGSDVTLPCGTANWDAAVTWRVNGTDLAPDLLNGSQLVLHGLELGHSGLYACFHRDSWHLRHQVLLHVGLPPQEPVLSCRSNTYPKGFYCSWHLPTPTYIPNTFNVTVLHGSKIMVCEKDPALKNRCHIRYMHLFSPIKHNVSISVSNALGHNATAITFDEFTIVKPDPPENVVARPVPSNPRRLEVTWQTPSTWPDPEFFPLKFFLRYRPLILDQWQHVELSDGTAHTIAAAYAGKEYIIQVAAKDNEFGTWSDWSVAAHATPWTEEPRHLTTEAQAAETTTSTTSSLAPPPTTKICDPGELGSRRLEPRGPTIKPCPPCKCPAPNLLGGPSVFIFPPKIKDVLMISLSPIVTCVVVDVSEDDPDVQISWFVNNVEVHTAQTQTHREDYNSTLRVVSALPIQHQDWMSGKEFKCKVNNKDLPAPIERTISKPKGSVRAPQVYVLPPPEEEMTKKQVTLTCMVTDFMPEDIYVEWTNNGKTELNYKNTEPVLDSDGSYFMYSKLRVEKKNWVERNSYSCSVVHEGLHNHHTTKSFSRTPGK
As to B2, the Kd in assay [1] is 0.063 nM.

B3: yeast-displayed CNTFR variant 4 (R110Q, T174P, S237F, I287F) (protein)
chain: VYAQRHSPQEAPHVQYERLGSDVTLPCGTANWDAAVTWRVNGTDLAPDLLNGSQLVLHGLELGHSGLYACFHRDSWHLRHQVLLHVGLPPQEPVLSCRSNTYPKGFYCSWHLPTPTYIPNTFNVTVLHGSKIMVCEKDPALKNRCHIRYMHLFSPIKYKVSISVSNALGHNATAITFDEFTIVKPDPPENVVARPVPSNPRRLEVTWQTPSTWPDPEFFPLKFFLRYRPLILDQWQHVELSDGTAHTITDAYAGKEYIIQVAAKDNEFGTWSDWSVAAHATPWTEEPRHLTTEAQAAETTTSTTSSLAPPPTTKICDPGELGS
In the case of B3, the figures for the Kd in assay [2] and in assay [3] were 0.019 nM and 19 nM, respectively.

B4: CLCF1 (ligand)
chain: LNRTGDPGPGPSIQKTYDLTRYLEHQLRSLAGTYLNYLGPPFNEPDFNPPRLGAETLPRATVDLEVWRSLNDKLRLTQNYEAYSHLLCYLRGLNRQAATAELRRSLAHFCTSLQGLLGSIAGVMAALGYPLPQPLPGTEPTWTPGPAHSDFLQKMDDFWLLKELQTWLWRSAKDFNRLKKKMQPPAAAVTLHLGAHGF
For B4, the Kd with 5 was determined as 740 nM; in the assay with 2 it was 890 nM; in the assay with 1, 4100 nM; with 3, 49 nM.

(Values after patent publication US20190359683A1 (published 2019).)
